Data published in article doi:10.1101/2024.02.29.582524.
One block for each substance: values may come before it.

What was measured:
[1] = biological target: Hebeloma cylindrosporum Jps1 (HcJps1) (Hebeloma cylindrosporum); assay: SEC-MALS
[2] = biological target: Sporisorium reilianum Jps1 (SrJps1) (Sporisorium reilianum); assay: SEC-MALS
[3] = biological target: Sporisorium reilianum Jps1 (SrJps1) (Sporisorium reilianum); assay: mass photometry
[4] = biological target: Ustilago maydis Jps1 lacking the unstructured C-terminus (Jps1^1-484) (Ustilago maydis); assay: SEC-MALS
[5] = biological target: Ustilago maydis Jps1 lacking the unstructured C-terminus (Jps1^1-484) (Ustilago maydis); assay: SAXS
[6] = biological target: Ustilago maydis Jps1, full length (Jps1^1-609) (Ustilago maydis); assay: SEC-MALS
[7] = biological target: Ustilago maydis Jps1, full length (Jps1^1-609) (Ustilago maydis); assay: mass photometry
[8] = biological target: Ustilago maydis Jps1^1-484 M^5 (alanine replacements of the basic cluster R162, R163, R164) (Ustilago maydis); assay: SEC-MALS

Substance: Sporisorium reilianum Jps1 (SrJps1) (natural protein)
stoichiometry N [2]: 2
stoichiometry N [3]: 2

Substance: Ustilago maydis Jps1, full length (Jps1^1-609) (natural protein)
stoichiometry N [6]: 2
percent of particles in the dimer fraction (125 kDa) [7]: 69%
percent of particles in the monomer fraction (64 kDa) [7]: 9%
stoichiometry N [7]: 2

Substance: Ustilago maydis Jps1^1-484 M^5 (alanine replacements of the basic cluster R162, R163, R164) (domain or fragment)
stoichiometry N [8]: 2

Results, then the substance that gave them:

stoichiometry N [1]: 2
Substance: Hebeloma cylindrosporum Jps1 (HcJps1) (natural protein)

stoichiometry N [4]: 2
stoichiometry N [5]: 2
Substance: Ustilago maydis Jps1 lacking the unstructured C-terminus (Jps1^1-484) (domain or fragment)
